Source: paper PMC10906223 (JCI Insight, 2024)
Values joined by “and” are separate entries in the source; they are usually repeats but may differ in a detail not shown here. Equal entries are not always repeated.

Assays:
[1] = system: murine dispersed islet cells; assay: Insulin secretion from murine dispersed islet cells; assay type: cell-based, mouse; settings: Ephrin-A5 Fc (E), one value per mouse, Figure 1G, listed as E
Description: (§1) Pancreata of nondiabetic C57BL/6J mice were digested using collagenase P (Roche Diagnostics, catalog 11213873001), and islets were manually picked up using a stereomicroscope (ZEISS Stemi 305). […] Isolated mouse islets or provided human islets were dispersed as described ([28]). Briefly, 100–120 islets were washed 2 times using modified HBSS, then dispersed in 600 μL Accutase (Innovative Cell Technologies, catalog AT-104) by gently pipetting up and down for 7 minutes at 37°C. […] Following refreshing of KRBH, cells were dispensed in 8 microfuge tubes (2,000 cells/tube) and treated with WCDD301, preclustered Ephrin-A5 Fc, or preclustered Fc in the presence or absence of the competitive inhibitor of EphA4 receptor, rhyncophylline ([60]) (MilliporeSigma, catalog SML2345). In the presence or absence of these effectors, secretion assay was performed sequentially as shown in Supplemental Table 5. […] Preclustering of Ephrin-A5 Fc was done by mixing Ephrin-A5 Fc or Fc alone (BioLegend, catalog 790102) with anti-Fc antibody (Invitrogen, catalog A16086) (1:10 molar ratio) 20 minutes before treatment ([62]). […] Shedding of cleaved EphA4 was measured from the cell culture medium. Experiments were performed by dispersion of 200 islets, and EphA4 levels in media were measured by EphA4 ELISA (ABclonal, catalog RK06572).

[2] = system: murine dispersed islet cells; assay: Glucagon secretion from murine dispersed islet cells; assay type: cell-based, mouse; settings: for Secretion of glucagon: E + Rhy (2.5 µM), Figure 1H; for Secretion of glucagon / Relative secretion of glucagon: listed as E; for Relative secretion of glucagon: Ephrin-A5 Fc (E), one value per mouse, Figure 1F
Description: as §1

[3] = system: human donor dispersed islet cells; assay: Somatostatin secretion from non-diabetic human donor dispersed islet cells; assay type: cell-based; settings: Ephrin-A5
Description: as §1
(§2) The Integrated Islet Distribution Program provided us human donor islets with their characteristics (Supplemental Table 6). Islets were centrifuged at 500g for 3 minutes, resuspended in CMRL 1066 medium (Gibco, catalog 1150-037) containing 11 mM glucose, and rested in an incubator overnight.
(§3) For the hormone secretion assay, islets or dispersed islet cells were adapted in KRBH buffer containing 11 mM glucose for 1 hour. Then, after 2 washes in HBSS containing 11 mM glucose, islets or cells were treated in the following sequential order in the presence or absence of WCDD301: incubation in KRBH (1 mM glucose, 30 minutes) followed by medium collection, incubation in KRBH (11 mM glucose, 30 minutes) followed by medium collection.

[4] = system: mouse dispersed islet cells; assay: Immunofluorescence: F-actin intensity in glucagon+ mouse dispersed islet cells; assay type: cell-based; settings: mouse cells; individual values; Figure 3F; listed as E;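 also: ImageJ intensity within ROI drawn around each glucagon+ cell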
Description: (§4) Coverslips were treated with WCDD301, preclustered Ephrin-A5 Fc, or preclustered Fc in the following sequential order: KRBH (11 mM glucose, 30 minutes), KRBH (1 mM glucose, 60 minutes), KRBH (1 mM glucose, 30 minutes), and KRBH (11 mM glucose, 60 minutes). After treatment, coverslips were washed once in PBS, fixed in 2% paraformaldehyde in PBS (30 minutes), and again washed in PBS. […] Following wash in PBS, coverslips were incubated in a mixture of Alexa Fluor 555 Phalloidin (Cell Signaling Technology, catalog 8953) and secondary antibodies (goat anti-rabbit Alexa Fluor 488, catalog A-21094, 1:1,000, Molecular Probes; and goat anti-mouse Alexa Fluor 633, catalog A21052, 1:1,000, Life Technologies) for 1 hour at RT. Both primary and secondary antibodies were diluted in blocking buffer containing 0.05% Tween 20. Coverslips were washed using PBS and counterstained by using DAPI (1:1,000) for 10 minutes. Following 2 washes in PBS, coverslips were mounted on glass slides using ProLong Glass Antifade Mountant (Invitrogen, catalog P36980). Images were captured using the Zeiss LSM880 microscope with a Plan-Apochromat 63× 1.4 NA objective lens by setting dual-band dichroic/filter for 405, 488, 561, and 633 nm laser excitation. For each slide, 25–30 fields of view were scanned, and in each field of view, 3–5 cells were imaged. […] Values of intensity were compared among groups using 1-way ANOVA, α = 0.05.

[5] = system: human dispersed islet cells; assay: Immunofluorescence: F-actin intensity in glucagon+ human dispersed islet cells; assay type: cell-based; settings: human cells; individual values; Figure 3E; listed as E;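 also: ImageJ intensity within ROI drawn around each glucagon+ cell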
Description: as §4

[6] = system: dispersed islet cells of donors with T1D; assay: Glucagon secretion from dispersed islet cells of donors with T1D; assay type: cell-based, human; settings: dispersed islet cells, T1D donors, one value per donor, Figure 2H, listed as E
Description: as §1, §2, §3

[7] = system: isolated islets of donors with T1D; assay: Insulin secretion from isolated islets of donors with T1D; assay type: cell-based, human; settings: isolated islets, T1D donors, one value per donor, Figure 2I, listed as E;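 also: insulin concentration in collected medium by Lumit immunoassay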
Description: as §2, §3

[8] = system: isolated islets of donors with T1D; assay: Glucagon secretion from isolated islets of donors with T1D; assay type: cell-based, human; settings: isolated islets, T1D donors, one value per donor, Figure 2G, listed as E
Description: as §2, §3

[9] = system: mouse dispersed islet cells; assay: Immunofluorescence: EphA4 intensity in glucagon+ mouse dispersed islet cells; assay type: cell-based; settings: mouse cells; individual values; Figure 3H; listed as E;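 also: ImageJ intensity within ROI drawn around each glucagon+ cell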
Description: as §4

[10] = system: human dispersed islet cells; assay: Immunofluorescence: EphA4 intensity in glucagon+ human dispersed islet cells; assay type: cell-based; settings: human cells; individual values; Figure 3G; listed as E;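 also: ImageJ intensity within ROI drawn around each glucagon+ cell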
Description: as §4

[11] = system: dispersed islet cells of donors with T1D; assay: Insulin secretion from dispersed islet cells of donors with T1D; assay type: cell-based, human; settings: dispersed islet cells, T1D donors, one value per donor, Figure 2J;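 also: insulin concentration in collected medium by Lumit immunoassay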
Description: as §1, §2, §3

B1: Ephrin-A5 Fc: recombinant mouse Ephrin-A5 Fc; natural ligand of EphA4 receptors (protein)
chain: QDPGSKVVADRYAVYWNSSNPRFQRGDYHIDVCINDYLDVFCPHYEDSVPEDKTERYVLYMVNFDGYSACDHTSKGFKRWECNRPHSPNGPLKFSEKFQLFTPFSLGFEFRPGREYFYISSAIPDNGRRSCLKLKVFVRPTNSCMKTIGVHDRVFDVNDKVENSLEPADDTVHESAEPSRGEN
modifications: left off: Fc, end not stated, kept
notes: recombinant mouse Ephrin-A5 Fc; natural ligand of EphA4 receptors
In the case of B1, the “Relative secretion of insulin” value ([1]; Glucose (1 mM)) is reported as 0.75 and 0.2 and 0.32 and 0.45 and 0.69, the “Relative secretion of insulin” value ([1]; Glucose (11 mM)) is reported as 1.02 and 1 and 0.85 and 0.8 and 0.96 and the “Effect on arginine-stimulated glucagon secretion” value ([2]; 1 mM and 11 mM glucose, Arg 25 mM, 301 3 µM, E 4 µg/mL, Supplemental Figure 2) is reported as “its effect was suppressed”. For the same molecule, the Secretion of glucagon ([2]; Glucose (1 mM)) was 0.8 and 0.85 and 0.95 and 1.05 and 1, the Secretion of glucagon ([2]; Glucose (11 mM)) was 1.1 and 1.07 and 1.2 and 1.05 and 1.15 and the “Relative secretion of glucagon” value ([2]; Glucose (1 mM)) was 0.85 and 0.95 and 1.05 and 0.7 and 0.8. The “Relative secretion of glucagon” value ([2]; Glucose (11 mM)) was 1.01 and 0.8 and 0.9 and 0.85 and 0.94, the “Somatostatin secretion (Supplemental Figure 4D; quantity not given)” value [3] was 1908.4 and 2981.9 and 2200.0 and the F-actin intensity [4] was 8.2 and 11.3 and 9.4 and 8.4 and 9.8 and 8.6 and 5.2 and 8.9 and 7.7. The F-actin intensity [5] was 9.8 and 7.6 and 4.7 and 8.3 and 7.5 and 5.1 and 5.9 and 5.2, the Secretion of glucagon ([6]; 1 mM glucose) was 14.105 and 25.56 and the Secretion of glucagon ([6]; 11 mM glucose) was 38.15 and 32.58. The Secretion of insulin ([7]; 1 mM glucose) was 0.075 and 0.07, the Secretion of insulin ([7]; 11 mM glucose) was 0.11 and 0.05 and the Secretion of glucagon ([8]; 1 mM glucose) was 40.65 and 55.72. For the same molecule, the Secretion of glucagon ([8]; 11 mM glucose) was 37.25 and 40.79, the EphA4 intensity [9] was 18.2 and 16.2 and 19.0 and 16.0 and 17.1 and 20.0 and 17.0 and 15.6 and 21.0 and 18.0 and 33.1 and 50.6 and 24.4 and 25.7 and the EphA4 intensity [10] was 45.7 and 17.5 and 5.4 and 39.9 and 12.3 and 5.9 and 20.4 and 7.4 and 4.4. The Secretion of insulin ([11]; 1 mM glucose) was 0.06 and the Secretion of insulin ([11]; 11 mM glucose, listed as E) was 0.10 and 0.05.
